Reference: patent publication US11390894B2, “Biological processes for the production of aryl sulfates” (CysBio ApS, priority 2014, dated 2022)

What was measured:
pHCA [1] = assay: Production of zosteric acid in E. coli from pHCA through heterologous expression of sulfotransferases; format: cell-based, Escherichia coli; conditions: culture media; M9 glucose, 0.1 mM IPTG, 0.1 mM pHCA, four days of growth
Source text: A range of aryl sulfotransferases including SULT1A1 Rattus norvegicus (SEQ ID NO: 1), SULT1A1 Homo sapiens (SEQ ID NO: 2), SULT1A1 Equus caballus (SEQ ID NO: 3), SULT1A1 Sus scrofa domesticus (SEQ ID NO: 4), SULT1A1 Canis lupus familiaris (SEQ ID NO: 5) and SULT1E1 Gallus gallus domesticus (SEQ ID NO: 6) were expressed in Escherichia coli. […]. The nucleotide sequence of the gene encoding SEQ ID NO: 2 was codon optimized for expression in Escherichia coli (GeneArt, Life Technologies) and amplified by PCR using the primers in Table 1. The pETDuet-1 plasmid was digested with restriction endonucleases Ncol and Sal. The PCR products were then individually cloned into the plasmid pETDuet-1 using the Gibson reaction (New England Biolabs). The resulting plasmids were transformed into BL21(DE3)pLysS (Life Technologies).
The strains were grown in M9 minimal media containing glucose as a carbon source, and 0.1 mM IPTG for induction of gene expression as well as 0.1 mM p-coumaric acid (pHCA). After four days of growth, samples were withdrawn by filtration and analyzed by HPLC.
(§1) The concentration of p-courmaric acid (pHCA) and zosteric acid in the supernatant was quantified by high performance (HPLC) and compared to chemical standards. HPLC was done on a Thermo setup using a HS-F5 column and mobile phases: 5 mM ammonium formate pH 4.0 (A) and acetonitrile (B) at 1.5 mL min-1, using a gradient elution starting at 5% B. From 0.5 min after injection to 7 min, the fraction of B increased linearly from 5% to 60%, and between 9.5 min and 9.6 the fraction of B decreased back to 5%, and remaining there until 12 min. pHCA and zosteric acid were quantified by measuring absorbance at 277 nm.
Zosteric acid was formed with an aryl sulfotransferase heterologously expressed in a microorganism exemplified by E. coli supplied with the substrate.

pHCA [2] = assay: Percent conversion of substrate by E. coli cells expressing sulfotransferases; format: cell-based, Escherichia coli; conditions: 100 μM pHCA, M9 medium, overnight 37° C.
Method: as §1
(§2) Different sulfotransferases were examined for their substrate specificities against three substrates. We tested the sulfotransferases mentioned in example 1, as well as additional ones. The genes encoding these were cloned as described in example 1 using the primers shown in the table below from cDNA libraries of the respective organisms, except for the SULT1A1 from rat (Rattus norvegicus) codon-optimized for E. coli (described above). The resulting vectors were transformed into BL21(DE3)pLysS.
(§3) The resulting strains were grown in M9 medium containing either 100 μM pHCA, 95 μM resveratrol or 87 M kaempferol. The cultures were grown overnight at 37° C., 300 rpm. The following day the supernatants were isolated and examined by HPLC as described in example 1.

resveratrol = assay: as above; format: cell-based, Escherichia coli; conditions: 95 μM resveratrol, M9 medium, overnight 37° C.
Method: as §1, §2, §3

kaempferol = assay: as above; format: cell-based, Escherichia coli; conditions: 87 μM kaempferol, M9 medium, overnight 37° C.
Method: as §1, §2, §3

p-coumaric acid = assay: Production of zosteric acid in Saccharomyces cerevisiae expressing SULT1A1; format: cell-based; conditions: strain CEN.PK102-5B, modified Delft medium, 10 mM p-coumaric acid, overnight 30° C., supernatant
Method: as §1
The gene encoding aryl sulfotransferase SULT1A (Example 1) was cloned after a TEF1 promoter into an episomal plasmid with a 2-micron origin of replication as follows. The gene was amplified by PCR using primers CBJP633 and CBJP634. Alternatively, the gene was codon-optimized for E. coli and synthesized by GeneArt and amplified by primers CBJP635 and CBJP636. The TEF1 promoter (Jensen et al., 2014, FEMS Yeast Res 14: 238-248) was amplified by PCR using the primers PTEF1_fw and PTEF1_rv. Plasmid pCfB132 (Jensen et al., supra) was digested by restriction enzymes AsiSI and Nt.Bsml. […]

Molecule | Zosteric acid formed (pHCA [1]) [mM] | pHCA remaining (pHCA [1]) [mM] | percent conversion of pHCA (pHCA [2]) [%] | percent conversion of resveratrol (resveratrol) [%] | percent conversion of kaempferol (kaempferol) [%] | μM ZA (averages and standard deviations of replicate experiments) (p-coumaric acid) [µM]
SULT1A1 Rattus norvegicus: aryl sulfotransferase SULT1A1 from Rattus norvegicus (SEQ ID NO: 1), expressed in host cells (protein, listed as Rattus norvegicus) MEFSRPPLVHVKGIPLIKYFAETIGPLQNFTAWPDDLLISTYPKSGTTWMSEILDMIYQGGKLEKCGRAPIYARVPFLEFKCPGVPSGLETLEETPAPRLLKTHLPLSLLPQSLLDQKVKVIYIARNAKDVVVSYYNFYNMAKLHPDPGTWDSFLENFMDGEVSYGSWYQHVKEWWELRHTHPVLYLFYEDIKENPKREIKKILEFLGRSLPEETVDSIVHHTSFKKMKENCMTNYTTIPTEIMDHNVSPFMRKGTTGDWKNTFTVAQNERFDAHYAKTMTDCDFKFRCEL | 0.10 | 0.02 | 93 | 93 | 95 | 37.8 ± 5.7
SULT1A1 Rattus norvegicus (Codon-optimized for E. coli): SULT1A1 from rat expressed from a gene codon-optimized for E. coli (protein, UniProt P17988 1-291, looked up) Sulfotransferase 1A1: MEFSRPPLVHVKGIPLIKYFAETIGPLQNFTAWPDDLLISTYPKSGTTWMSEILDMIYQGGKLEKCGRAPIYARVPFLEFKCPGVPSGLETLEETPAPRLLKTHLPLSLLPQSLLDQKVKVIYIARNAKDVVVSYYNFYNMAKLHPDPGTWDSFLENFMDGEVSYGSWYQHVKEWWELRHTHPVLYLFYEDIKENPKREIKKILEFLGRSLPEETVDSIVHHTSFKKMKENCMTNYTTIPTEIMDHNVSPFMRKGTTGDWKNTFTVAQNERFDAHYAKTMTDCDFKFRCEL |  |  | 73 | 58 | 38 | 46.2 ± 3.5
